This is an account of results in patent publication US8877192B2, “Rage fusion proteins and methods of use” (TransTech Pharma, LLC, priority 2004, dated 2014).

Series [1] concerns the target T1, amyloid-beta (Abeta) (Homo sapiens, UniProt P05067).
T1 construct: Amyloid Beta (1-40) from Biosource; purchased Biosource
The series can be described thus: In vitro ligand binding (ELISA) to immobilized amyloid-beta. The following applies: increasing dilutions of fusion protein; FIG. 7. As to the method:
(§1) For example, the RAGE fusion protein may be used in a binding assay to identify potential RAGE ligands. In one example embodiment of such a binding assay, a known RAGE ligand may coated onto a solid substrate (e.g., Maxisorb plates) at a concentration of about 5 micrograms per well, where each well contains a total volume of about 100 microliters (μL). The plates may be incubated at 4° C. overnight to allow the ligand to absorb. Alternatively, shorter incubation periods at higher temperature (e.g., room temperature) may be used. […] The fusion protein bound to the immobilized ligand may be detected in a variety of ways. […] The bound complex may be detected by adding the alkaline phosphatase substrate, para-nitrophenylphosphate (PNPP), and measuring conversion of PNPP to para-nitrophenol (PNP) as an increase in absorbance at 405 nm. […] Binding was detected by the addition of an immunodetection complex containing a monoclonal mouse anti-human IgG1 diluted 1:11,000 to a final assay concentration (FAC) of 21 ng/100 μL, a biotinylated goat anti-mouse IgG diluted 1:500, to a FAC of […], and an avidin-linked alkaline phosphatase. […] Binding of the complex to the immobilized fusion protein was quantified by measuring conversion of PNPP to para-nitrophenol (PNP) which was measured spectrophotometrically at 405 nm. […]

In series [2] the test system is amyloid-beta (A-beta). The series can be described thus: Competition of a RAGE ligand with immobilized amyloid-beta for binding to the fusion protein. Particulars: TTP-4000 initial solution diluted 1:10 or 1:30; RAGE ligand FAC 10 μM. As to the method:
The fusion protein of the present invention may also be used to identify compounds having the ability to bind to RAGE.
Known RAGE ligands were coated onto the surface of Maxisorb plates at a concentration of 5 micrograms per well. Plates were incubated at 4° C. overnight. Following ligand incubation, plates were aspirated and a blocking buffer of 1% BSA in 50 mM imidizole buffer (pH 7.2) was added to the plates for 1 hour at room temperature. The plates were then aspirated and/or washed with wash buffer (20 mM Imidizole, 150 mM NaCl, 0.05% Tween-20, 5 mM CaCl2 and 5 mM MgCl2, pH 7.2). […] The fusion protein was added at increasing dilutions of the initial sample. The RAGE fusion protein was allowed to incubate with the immobilized ligand at 37° C. for one hour after which the plate was washed and assayed for binding of the fusion protein. Binding was detected by the addition of an immunodetection complex containing a monoclonal mouse anti-human IgG1 diluted 1:11,000 to a final assay concentration (FAC) of 21 ng/100 μL, a biotinylated goat anti-mouse IgG diluted 1:500, to a FAC of […], and an avidin-linked alkaline phosphatase. […] Binding of the complex to the immobilized fusion protein was quantified by measuring conversion of PNPP to para-nitrophenol (PNP) which was measured spectrophotometrically at 405 nm. […]

Series [3] deals with T2, S100b (S100) (Homo sapiens, UniProt P04271).
T2 sequence (P04271 1-92): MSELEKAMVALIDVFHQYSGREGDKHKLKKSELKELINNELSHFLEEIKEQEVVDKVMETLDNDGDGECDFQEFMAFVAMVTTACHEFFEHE
Briefly: In vitro ligand binding (ELISA) to immobilized S100b. The following applies: increasing dilutions of fusion protein; FIG. 7. As to the method:
as §1
On the technique in general: ELISA stands for enzyme-linked immunosorbent assay.

Series [4] addresses T3, amphoterin (Ampho) (Homo sapiens, UniProt P09429).
T3 sequence (P09429 1-215): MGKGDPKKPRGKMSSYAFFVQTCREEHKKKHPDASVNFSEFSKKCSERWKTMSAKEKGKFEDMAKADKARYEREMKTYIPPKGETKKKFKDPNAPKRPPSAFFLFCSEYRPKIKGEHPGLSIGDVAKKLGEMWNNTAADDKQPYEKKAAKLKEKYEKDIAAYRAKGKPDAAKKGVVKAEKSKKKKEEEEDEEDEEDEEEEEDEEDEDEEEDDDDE
Briefly: In vitro ligand binding (ELISA) to immobilized amphoterin. The following applies: increasing dilutions of fusion protein; FIG. 7. On the procedure:
as §1

T1 sequence (P05067 672-711 limits assumed): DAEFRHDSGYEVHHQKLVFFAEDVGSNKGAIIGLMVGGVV

B1: TTP-4000: four domain RAGE fusion protein (SEQ ID NO: 32): human RAGE amino acids 1-251 linked to CH2 and CH3 domains of human IgG (protein)
chain: MAAGTAVGAWALVLSLWGAVVGAQNITARIGEPLVLKCKGAPKKPPQRLEWKLNTGRTEAWKVLSPQGGGPWDSVARVLPNGSLFLPAVGIQDEGIFRCQAMNRNGKETKSNYRVRVYQIPGKPEIVDSASELTAGVPNKVGTCVSEGSYPAGTLSWHLDGKPLVPNEKGVSVKEQTRRHPETGLFTLQSELMVTPARGGDPRPTFSCSFSPGLPRHRALRTAPIQPRVWEPVPLEEVQLVVEPEGGAVAPPSVFLFPPKPKDTLMISRTPEVTCVVVDVSHEDPEVKFNWYVDGVEVHNAKTKPREEQYNSTYRVVSVLTVLHQDWLNGKEYKCKVSNKALPAPIEKTISKAKGQPREPQVYTLPPSRDELTKNQVSLTCLVKGFYPSDIAVEWESNGQPENNYKTTPPVLDSDGSFFLYSKLTVDKSRWQQGNVFSCSVMHEALHNHYTQKSLSLSPGK
As for B1, in series [1], the “binding to immobilized amyloid-beta (absorbance at 405 nm)” value was “specifically interact”. For the same molecule, in series [2], the “block of binding of fusion protein to immobilized amyloid-beta by the RAGE ligand” value is given as “completely inhibited”. The “binding to immobilized S100b (absorbance at 405 nm)” value in series [3] was “specifically interact”. Further, the “binding to immobilized amphoterin (absorbance at 405 nm)” value in series [4] is “specifically interact”.
